Test results: US20230220104A1 (BRIGHTPATH BIOTHERAPEUTICS, published 2023)
Changes are numbered by the printed parent chain.

T1: human CD73 on cells (H322, MDA-MB-231, HT-144, T cells, CD73-transfected HEK293T) (human, UniProt P21589 27-549)
T1 sequence (looked up): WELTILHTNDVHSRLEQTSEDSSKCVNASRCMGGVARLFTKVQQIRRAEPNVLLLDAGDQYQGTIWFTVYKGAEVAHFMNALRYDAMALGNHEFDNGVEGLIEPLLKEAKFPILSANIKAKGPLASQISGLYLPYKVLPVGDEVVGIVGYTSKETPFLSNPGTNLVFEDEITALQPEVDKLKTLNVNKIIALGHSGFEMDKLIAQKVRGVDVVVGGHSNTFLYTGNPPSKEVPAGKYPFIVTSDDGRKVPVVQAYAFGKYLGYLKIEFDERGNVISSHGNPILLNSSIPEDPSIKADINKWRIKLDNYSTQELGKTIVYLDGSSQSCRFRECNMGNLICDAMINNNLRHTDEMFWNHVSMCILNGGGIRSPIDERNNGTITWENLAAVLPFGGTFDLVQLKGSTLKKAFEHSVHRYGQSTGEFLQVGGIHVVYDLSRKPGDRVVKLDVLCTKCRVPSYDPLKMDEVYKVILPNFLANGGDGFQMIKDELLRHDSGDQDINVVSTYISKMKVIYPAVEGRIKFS

B1: 002_1_c antibody (antibody, V domains shown)
VH: QVQMKQSGPELVKPGASVKIPCKASGYTFTDCNMDWVKQSHGESLEWIGDINPNNGGTIYNQKFKGKVTLTIDKSSSTAYMELRSLTSEDTAVYYCARTNWDYAMDYWGQGTSVTVSS
VL: DIQMTQSPSSMYASLGERVTITCKASQDINSNLSWFQQKPGKSPKTLIYRANRLIDGVPSRFSGSGSGQDYSLTISSLEYEDMGIYYCLQYDVFPRTFGGGTKLELK
B2: 002_3_c antibody (antibody, V domains shown)
VH: B1 VH
VL: B1 VL with N32Q
B3: 002_2_c antibody (antibody, V domains shown)
VH: B1 VH
VL: B1 VL with N32D
B4: 002_6_c antibody (antibody, V domains shown)
VH: B1 VH with C32S
VL: B1 VL with N32Q
B5: 002_4_c antibody (antibody, V domains shown)
VH: B1 VH with C32S
VL: B1 VL
B6: 002_5_c antibody (antibody, V domains shown)
VH: B1 VH with C32S
VL: B1 VL with N32D
B7: 002_6_h2 (antibody, V domains shown)
VH: QVQMKQSGAEVKKPGASVKVSCKASGYTFTDSNMDWVRQAPGQRLEWMGDINPNNGGTIYNQKFKGRVTITIDTSASTAYMELSSLRSEDTAVYYCARTNWDYAMDYWGQGTLVTVSS
VL: DIQMTQSPSSMSASVGDRVTITCKASQDINSQLSWYQQKPGKAPKTLIYRANRLIDGVPSRFSGSGSGTDFTLTISSLQYEDMATYYCLQYDVFPRTFGQGTKLEIK
B8: 006_m antibody (antibody, V domains shown)
VH: QVQLQQPGAELVKPGVSVKLSCKASGYTFTSYWMHWVKQRPGQGPEWIGEINPSNARTNYNENFKSKATLTVDKSSTTAYMHFSRLTSEDSAVYYCARRGTSGNYFDFWGQGTTVTVSS
VL: B1 VL with S31T, N32Y, I55V, Q69E, V93E, R96Y, K103R, L106I
B9: 007_m antibody (antibody, V domains shown)
VH: QVQLQQPGAELVRPGASVKLSCKASGYTFTSYWMNWVKQRPEQGLEWIGKIDPYDSETHYNQKFKDKAILTVDKSSSTAFMQLSSLTSEDSAVYYCARIRYGTFDYWGQGTTLTVSS
VL: B1 VL with Q3V, S31N, N32Y, R53I, I55V, R61G, V93E, R96Y, K103R, L106I
B10: 008_m antibody (antibody, V domains shown)
VH: QVQLKQSGAELVKPGASVKLSCKASGYTFTSYWMHWVKQRPGQGPEWIGEINPSNGRTNYNEKFKNRATLTVDKSSSTAYMQLSRLTSEDSAVYYCARRGTSGNYFDYWGQGTTLTVSS
VL: B1 VL with S31T, N32Y, I55V, Q69E, V93E, R96Y, K103R, L106I
B11: 003_m antibody (antibody, V domains shown)
VH: DVKLVESGGGLVQPGGSRKLSCAASGFTFSSFGMHWVRQAPEKGLEWVAYISSGSRTIYYADTVRGRFTISRDNSKNTLFLQLTSLRSEDTAIYYCASDFGSSSPNYFDYWGQGTTVTVSS
VL: not shown
B12: 004_m antibody (antibody, V domains shown)
VH: QVQLQQPGAELVRPGTSVKLSCKASGYTFTGYWMNWLKQRPDQGLEWIGRIDPYDSETHYSQKFKDKAILTVHKSSSTAYIQLNSLTSEDSAVYYCTRSSPITTAPFDYWGRGTTLTVSS
VL: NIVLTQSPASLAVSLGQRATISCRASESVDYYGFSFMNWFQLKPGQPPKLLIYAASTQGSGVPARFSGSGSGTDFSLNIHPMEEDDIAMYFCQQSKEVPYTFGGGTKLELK
B13: 002_6_h1 (antibody, V domains shown)
VH: B7 VH with M4L, K5V, I72R
VL: B7 VL with M11L, T46L, Y80P, M83F, L89Q
notes: Humanized antibody of 002_6_c; also called humanized antibody 002_6_h1
B14: 002_6_h6 (antibody, V domains shown)
VH: B7 VH with Q6E, R44G, I70M, A76T, A79V
VL: B7 VL with M4V, S10F, M11L, Q100G, L104V
notes: Humanized antibody of 002_6_c; also called humanized antibody 002_6_h6
B15: 002_6_h3 (antibody, V domains shown)
VH: QVQLLQSAAEVRKPGASVKVSCKASGYTFTDSNMDWVRQAPGQGLEWMGDINPNNGGTIYNQKFKGRVTMTTDTSRRTAYMELRSLRSDDTAVYYCARTNWDYAMDYWGQGTTVTVSS
VL: B7 VL with S10F, M11L, T46L, D70E, Y80P, M83F, L89Q, Q100G
notes: Humanized antibody of 002_6_c; also called humanized antibody 002_6_h3
B16: 002_6_h5 (antibody, V domains shown)
VH: B7 VH with M4L, K5Q, Q6E, R44G, I70M, I72R, A76T, A79V
VL: B7 VL with M4V, S10F, M11L, T46L, D70E, Y80P, M83F, L89Q, Q100G, L104V
notes: Humanized antibody of 002_6_c; also called humanized antibody 002_6_h5
B17: 008_h4 antibody (antibody, V domains shown)
VH: QVQLVQSGAEVKKPGASVKVSCKASGYTFTSYWMHWVRQRPGQGLEWMGEINPSNGRTNYNEKFKNRATITADKSSSTAYMELSSLRSEDTAVYYCARRGTSGNYFDYWGQGTLVTVSS
VL: B7 VL with M11L, S31T, Q32Y, Y36F, I55V, S67Y, V93E, R96Y, Q100G, L104V
notes: Humanized antibody based on 008_m
B18: 004_h3 antibody (antibody, V domains shown)
VH: EVQLVQSGAEVKKPGESLKISCKASGYTFTGYWMNWLRQMPDKGLEWMGRIDPYDSETHYSQKFKDKVTITAHKSSSTAYLQWSSLKASDSAIYYCARSSPITTAPFDYWGQGTTVTVSS
VL: DIVMTQSPASLAVSLGERATISCRASESVDYYGFSFMNWYQQKPGQPPKLLIYAASTQGSGVPDRFSGSGSGTDFTLTISSLQAEDVAVYYCQQSKEVPYTFGGGTKVEIK
notes: Humanized antibody based on 004_m

The binders below were run against T1, human CD73 on cells (H322, MDA-MB-231, …) (assay: cell-based or functional assay).

Binder	IC50 of AMP degradation suppressive function, H322 cells [mg/L]
B1	0.042
B2	0.039
B3	0.077
B4	0.042
B5	0.038
B6	0.066

Target: T1, human CD73 on cells (H322, MDA-MB-231, …)
Experiment: cell-based or functional assay
Remark: another data set of the same source

Binder	IC50 of AMP degradation suppressive function, H322 cells [mg/L]
B4	0.04
B7	0.236

Target: T1, human CD73 on cells (H322, MDA-MB-231, …)
Experiment: cell-based or functional assay
Remark: another data set of the same source

Binder	IC50 of AMP degradation suppressive function, MDA-MB-231 cells [mg/L]
B4	0.023

Target: T1, human CD73 on cells (H322, MDA-MB-231, …)
Experiment: cell-based or functional assay
Remark: another data set of the same source

Binder	IC50 of AMP degradation suppressive function (cell line of Table 7 not stated; H322 in FIG. 12) [mg/L]
B8	0.008
B9	0.012
B10	0.006
B11	0.088
B12	0.013

Target: T1, human CD73 on cells (H322, MDA-MB-231, …)
Experiment: cell-based or functional assay
Remark: another data set of the same source

Binder	IC50 of AMP degradation suppressive function, MDA-MB-231 cells [mg/L]
B8	0.032
B9	0.041
B4	0.04
B10	0.031
B12	0.032

Each binder was assayed against T1, human CD73 on cells (H322, MDA-MB-231, …) (assay: flow cytometry on H322 cells (endogenous CD73), PE channel).
Method: Analysis of the binding activity of each of the obtained humanized antibodies 002_6_h1 to 002_6_h8 to target expressing cells was carried out by FACS analysis using endogeneously CD73 expressing cells (human lung cancer cell line H322).

Binder	binding result
B13	binds
B14	binds
B15	binds
B16	binds

Each binder was assayed against T1, human CD73 on cells (H322, MDA-MB-231, …) (assay: flow cytometry, HEK293T cells forcibly expressing human CD73 (293T_hCD73) against untransfected 293T cells, APC channel).

Binder	binding result
B17	binds
B18	binds
